This assay deals with T1, FcγRIIa R (human, UniProt P12318 34-217).
T1 construct: extracellular domain; also called FcgRIIa R type; 2aR
T1 sequence (looked up): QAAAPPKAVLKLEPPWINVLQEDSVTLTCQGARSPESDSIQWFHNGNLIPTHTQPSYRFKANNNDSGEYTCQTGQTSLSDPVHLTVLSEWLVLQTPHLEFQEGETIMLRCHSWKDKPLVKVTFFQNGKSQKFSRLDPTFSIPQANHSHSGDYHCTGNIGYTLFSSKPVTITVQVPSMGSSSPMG
Description: SPR (Biacore), captured antibody, FcγR as analyte; relative binding activity.

B1: GpH7-B3 variant P271_08L/GpL16-k0 (antibody, human IgG1, kappa)
heavy: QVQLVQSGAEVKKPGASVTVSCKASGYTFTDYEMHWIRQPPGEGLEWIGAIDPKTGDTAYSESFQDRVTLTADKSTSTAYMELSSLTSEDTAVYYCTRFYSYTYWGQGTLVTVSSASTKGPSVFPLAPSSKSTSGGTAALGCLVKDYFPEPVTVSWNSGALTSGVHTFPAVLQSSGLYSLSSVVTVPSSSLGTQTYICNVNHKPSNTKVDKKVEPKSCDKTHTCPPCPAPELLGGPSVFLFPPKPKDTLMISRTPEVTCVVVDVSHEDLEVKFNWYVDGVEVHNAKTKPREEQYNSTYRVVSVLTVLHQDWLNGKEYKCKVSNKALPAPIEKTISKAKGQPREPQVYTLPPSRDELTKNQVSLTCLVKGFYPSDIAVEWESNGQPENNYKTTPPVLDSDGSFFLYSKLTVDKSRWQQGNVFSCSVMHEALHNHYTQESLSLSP
light: DIVMTQSPLSLPVTPGEPASISCQASESLVHSNRNTYLHWYLQKPGQSPQLLIYKVSNRFSGVPDRFSGSGSGTDFTLKISRVEAEDVGVYYCSQNTHVPPTFGQGTKVEIERTVAAPSVFIFPPSDEQLKSGTASVVCLLNNFYPREAKVQWKVDNALQSGNSQESVTEQDSKDSTYSLSSTLTLSKADYEKHKVYACEVTHQGLSSPVTKSFNRGEC
notes: also called Ho Ab P271_08L
Consider B1, for which the Ho/Con_2aR is 102 % (GpH7-B3/GpL16-k0 = 100).

B2: GpH7-A5/GpH7-B3 variant N325_01G/GpL16-k0 (antibody, human IgG1, kappa)
heavy 1: not shown
heavy 2: not shown
light: DIVMTQSPLSLPVTPGEPASISCQASESLVHSNRNTYLHWYLQKPGQSPQLLIYKVSNRFSGVPDRFSGSGSGTDFTLKISRVEAEDVGVYYCSQNTHVPPTFGQGTKVEIERTVAAPSVFIFPPSDEQLKSGTASVVCLLNNFYPREAKVQWKVDNALQSGNSQESVTEQDSKDSTYSLSSTLTLSKADYEKHKVYACEVTHQGLSSPVTKSFNRGEC
notes: also called He Ab N325_01G
As to B2, the He/Con_2aR is 107 % (GpH7-A5/GpH7-B3/GpL16-k0 = 100).

B3: GpH7-A5/GpH7-B3 variant E269_09D/GpL16-k0 (antibody, human IgG1, kappa)
heavy 1: not shown
heavy 2: not shown
light: DIVMTQSPLSLPVTPGEPASISCQASESLVHSNRNTYLHWYLQKPGQSPQLLIYKVSNRFSGVPDRFSGSGSGTDFTLKISRVEAEDVGVYYCSQNTHVPPTFGQGTKVEIERTVAAPSVFIFPPSDEQLKSGTASVVCLLNNFYPREAKVQWKVDNALQSGNSQESVTEQDSKDSTYSLSSTLTLSKADYEKHKVYACEVTHQGLSSPVTKSFNRGEC
notes: also called He Ab E269_09D
Take B3: the He/Con_2aR was 105 % (GpH7-A5/GpH7-B3/GpL16-k0 = 100).

B4: GpH7-A5/GpH7-B3 variant A330_15Y/GpL16-k0 (antibody, human IgG1, kappa)
heavy 1: not shown
heavy 2: not shown
light: DIVMTQSPLSLPVTPGEPASISCQASESLVHSNRNTYLHWYLQKPGQSPQLLIYKVSNRFSGVPDRFSGSGSGTDFTLKISRVEAEDVGVYYCSQNTHVPPTFGQGTKVEIERTVAAPSVFIFPPSDEQLKSGTASVVCLLNNFYPREAKVQWKVDNALQSGNSQESVTEQDSKDSTYSLSSTLTLSKADYEKHKVYACEVTHQGLSSPVTKSFNRGEC
notes: also called He Ab A330_15Y
In the case of B4, the He/Con_2aR was 102 % (GpH7-A5/GpH7-B3/GpL16-k0 = 100).

B5: GpH7-A5/GpH7-B3 variant A327_09D/GpL16-k0 (antibody, human IgG1, kappa)
heavy 1: not shown
heavy 2: not shown
light: DIVMTQSPLSLPVTPGEPASISCQASESLVHSNRNTYLHWYLQKPGQSPQLLIYKVSNRFSGVPDRFSGSGSGTDFTLKISRVEAEDVGVYYCSQNTHVPPTFGQGTKVEIERTVAAPSVFIFPPSDEQLKSGTASVVCLLNNFYPREAKVQWKVDNALQSGNSQESVTEQDSKDSTYSLSSTLTLSKADYEKHKVYACEVTHQGLSSPVTKSFNRGEC
notes: also called He Ab A327_09D
B5: the He/Con_2aR was 124 % (GpH7-A5/GpH7-B3/GpL16-k0 = 100).

B6: GpH7-B3 variant P331_03V/GpL16-k0 (antibody, human IgG1, kappa)
heavy: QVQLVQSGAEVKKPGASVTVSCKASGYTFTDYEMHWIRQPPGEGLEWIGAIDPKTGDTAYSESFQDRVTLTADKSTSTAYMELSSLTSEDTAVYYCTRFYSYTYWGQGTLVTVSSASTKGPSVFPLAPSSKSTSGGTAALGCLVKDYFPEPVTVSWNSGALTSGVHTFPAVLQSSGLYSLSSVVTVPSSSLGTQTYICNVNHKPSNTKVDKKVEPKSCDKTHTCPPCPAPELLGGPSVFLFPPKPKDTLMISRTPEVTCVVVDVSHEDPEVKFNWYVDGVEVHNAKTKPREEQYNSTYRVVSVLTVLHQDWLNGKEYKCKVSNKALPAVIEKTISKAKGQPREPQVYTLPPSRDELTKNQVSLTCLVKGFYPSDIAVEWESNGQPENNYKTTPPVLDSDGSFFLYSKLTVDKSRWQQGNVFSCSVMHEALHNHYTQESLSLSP
light: DIVMTQSPLSLPVTPGEPASISCQASESLVHSNRNTYLHWYLQKPGQSPQLLIYKVSNRFSGVPDRFSGSGSGTDFTLKISRVEAEDVGVYYCSQNTHVPPTFGQGTKVEIERTVAAPSVFIFPPSDEQLKSGTASVVCLLNNFYPREAKVQWKVDNALQSGNSQESVTEQDSKDSTYSLSSTLTLSKADYEKHKVYACEVTHQGLSSPVTKSFNRGEC
notes: also called Ho Ab P331_03V
Take B6: the Ho/Con_2aR is 89.1 % (GpH7-B3/GpL16-k0 = 100).

B7: GpH7-B3 variant P271_09D/GpL16-k0 (antibody, human IgG1, kappa)
heavy: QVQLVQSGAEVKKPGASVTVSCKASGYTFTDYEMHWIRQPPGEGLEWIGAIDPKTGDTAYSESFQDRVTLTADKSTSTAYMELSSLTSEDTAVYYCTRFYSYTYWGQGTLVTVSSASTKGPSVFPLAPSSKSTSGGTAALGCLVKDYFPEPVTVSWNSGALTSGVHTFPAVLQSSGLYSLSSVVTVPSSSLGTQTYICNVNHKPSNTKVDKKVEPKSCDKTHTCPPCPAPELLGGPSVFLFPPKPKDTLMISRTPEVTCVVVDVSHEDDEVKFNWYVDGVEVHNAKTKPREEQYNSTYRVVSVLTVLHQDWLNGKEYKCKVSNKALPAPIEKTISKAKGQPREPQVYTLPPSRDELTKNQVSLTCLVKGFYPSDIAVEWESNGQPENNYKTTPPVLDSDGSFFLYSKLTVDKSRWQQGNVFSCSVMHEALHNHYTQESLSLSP
light: DIVMTQSPLSLPVTPGEPASISCQASESLVHSNRNTYLHWYLQKPGQSPQLLIYKVSNRFSGVPDRFSGSGSGTDFTLKISRVEAEDVGVYYCSQNTHVPPTFGQGTKVEIERTVAAPSVFIFPPSDEQLKSGTASVVCLLNNFYPREAKVQWKVDNALQSGNSQESVTEQDSKDSTYSLSSTLTLSKADYEKHKVYACEVTHQGLSSPVTKSFNRGEC
notes: also called Ho Ab P271_09D
For the molecule B7, the Ho/Con_2aR was 92.4 % (GpH7-B3/GpL16-k0 = 100).

B8: GpH7-A5/GpH7-B3 variant A330_01G/GpL16-k0 (antibody, human IgG1, kappa)
heavy 1: not shown
heavy 2: not shown
light: DIVMTQSPLSLPVTPGEPASISCQASESLVHSNRNTYLHWYLQKPGQSPQLLIYKVSNRFSGVPDRFSGSGSGTDFTLKISRVEAEDVGVYYCSQNTHVPPTFGQGTKVEIERTVAAPSVFIFPPSDEQLKSGTASVVCLLNNFYPREAKVQWKVDNALQSGNSQESVTEQDSKDSTYSLSSTLTLSKADYEKHKVYACEVTHQGLSSPVTKSFNRGEC
notes: also called He Ab A330_01G
Take B8: the He/Con_2aR was 109 % (GpH7-A5/GpH7-B3/GpL16-k0 = 100).

B9: GpH7-A5/GpH7-B3 variant A330_19Q/GpL16-k0 (antibody, human IgG1, kappa)
heavy 1: not shown
heavy 2: not shown
light: DIVMTQSPLSLPVTPGEPASISCQASESLVHSNRNTYLHWYLQKPGQSPQLLIYKVSNRFSGVPDRFSGSGSGTDFTLKISRVEAEDVGVYYCSQNTHVPPTFGQGTKVEIERTVAAPSVFIFPPSDEQLKSGTASVVCLLNNFYPREAKVQWKVDNALQSGNSQESVTEQDSKDSTYSLSSTLTLSKADYEKHKVYACEVTHQGLSSPVTKSFNRGEC
notes: also called He Ab A330_19Q
For the molecule B9, the He/Con_2aR is 104 % (GpH7-A5/GpH7-B3/GpL16-k0 = 100).

B10: GpH7-A5/GpH7-B3 variant A330_05P/GpL16-k0 (antibody, human IgG1, kappa)
heavy 1: not shown
heavy 2: not shown
light: DIVMTQSPLSLPVTPGEPASISCQASESLVHSNRNTYLHWYLQKPGQSPQLLIYKVSNRFSGVPDRFSGSGSGTDFTLKISRVEAEDVGVYYCSQNTHVPPTFGQGTKVEIERTVAAPSVFIFPPSDEQLKSGTASVVCLLNNFYPREAKVQWKVDNALQSGNSQESVTEQDSKDSTYSLSSTLTLSKADYEKHKVYACEVTHQGLSSPVTKSFNRGEC
notes: also called He Ab A330_05P
In the case of B10, the He/Con_2aR is 115 % (GpH7-A5/GpH7-B3/GpL16-k0 = 100).

B11: GpH7-A5/GpH7-B3 variant A327_10E/GpL16-k0 (antibody, human IgG1, kappa)
heavy 1: not shown
heavy 2: not shown
light: DIVMTQSPLSLPVTPGEPASISCQASESLVHSNRNTYLHWYLQKPGQSPQLLIYKVSNRFSGVPDRFSGSGSGTDFTLKISRVEAEDVGVYYCSQNTHVPPTFGQGTKVEIERTVAAPSVFIFPPSDEQLKSGTASVVCLLNNFYPREAKVQWKVDNALQSGNSQESVTEQDSKDSTYSLSSTLTLSKADYEKHKVYACEVTHQGLSSPVTKSFNRGEC
notes: also called He Ab A327_10E
B11: the He/Con_2aR was 110 % (GpH7-A5/GpH7-B3/GpL16-k0 = 100).

B12: GpH7-B3 variant P331_02A/GpL16-k0 (antibody, human IgG1, kappa)
heavy: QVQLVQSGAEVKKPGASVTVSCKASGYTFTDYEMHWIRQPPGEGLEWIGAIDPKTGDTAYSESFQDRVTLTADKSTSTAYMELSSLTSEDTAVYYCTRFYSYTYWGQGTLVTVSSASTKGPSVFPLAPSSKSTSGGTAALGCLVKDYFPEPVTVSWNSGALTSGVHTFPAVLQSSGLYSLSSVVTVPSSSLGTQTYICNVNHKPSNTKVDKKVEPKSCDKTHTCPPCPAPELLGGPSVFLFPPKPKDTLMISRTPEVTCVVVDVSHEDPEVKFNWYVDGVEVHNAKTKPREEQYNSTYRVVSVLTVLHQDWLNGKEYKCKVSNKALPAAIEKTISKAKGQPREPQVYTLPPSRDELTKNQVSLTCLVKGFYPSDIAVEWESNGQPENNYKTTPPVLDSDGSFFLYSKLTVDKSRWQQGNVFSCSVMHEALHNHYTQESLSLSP
light: DIVMTQSPLSLPVTPGEPASISCQASESLVHSNRNTYLHWYLQKPGQSPQLLIYKVSNRFSGVPDRFSGSGSGTDFTLKISRVEAEDVGVYYCSQNTHVPPTFGQGTKVEIERTVAAPSVFIFPPSDEQLKSGTASVVCLLNNFYPREAKVQWKVDNALQSGNSQESVTEQDSKDSTYSLSSTLTLSKADYEKHKVYACEVTHQGLSSPVTKSFNRGEC
notes: also called Ho Ab P331_02A
Turning to B12, the Ho/Con_2aR was 102 % (GpH7-B3/GpL16-k0 = 100).

B13: GpH7-A5/GpH7-B3 variant A330_11K/GpL16-k0 (antibody, human IgG1, kappa)
heavy 1: not shown
heavy 2: not shown
light: DIVMTQSPLSLPVTPGEPASISCQASESLVHSNRNTYLHWYLQKPGQSPQLLIYKVSNRFSGVPDRFSGSGSGTDFTLKISRVEAEDVGVYYCSQNTHVPPTFGQGTKVEIERTVAAPSVFIFPPSDEQLKSGTASVVCLLNNFYPREAKVQWKVDNALQSGNSQESVTEQDSKDSTYSLSSTLTLSKADYEKHKVYACEVTHQGLSSPVTKSFNRGEC
notes: also called He Ab A330_11K
In the case of B13, the He/Con_2aR was 110 % (GpH7-A5/GpH7-B3/GpL16-k0 = 100).

B14: GpH7-B3 variant P331_04F/GpL16-k0 (antibody, human IgG1, kappa)
heavy: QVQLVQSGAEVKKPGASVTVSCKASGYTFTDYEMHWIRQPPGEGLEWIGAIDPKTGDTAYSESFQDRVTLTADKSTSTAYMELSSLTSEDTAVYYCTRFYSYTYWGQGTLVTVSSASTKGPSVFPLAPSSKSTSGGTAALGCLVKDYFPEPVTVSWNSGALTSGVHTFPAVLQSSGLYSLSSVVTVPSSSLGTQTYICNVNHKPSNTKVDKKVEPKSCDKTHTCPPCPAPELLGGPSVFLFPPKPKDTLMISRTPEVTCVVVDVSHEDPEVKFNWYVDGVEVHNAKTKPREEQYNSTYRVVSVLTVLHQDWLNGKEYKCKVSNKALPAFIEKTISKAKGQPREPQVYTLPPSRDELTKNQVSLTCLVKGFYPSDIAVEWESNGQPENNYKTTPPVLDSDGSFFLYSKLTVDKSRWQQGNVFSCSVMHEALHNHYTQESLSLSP
light: DIVMTQSPLSLPVTPGEPASISCQASESLVHSNRNTYLHWYLQKPGQSPQLLIYKVSNRFSGVPDRFSGSGSGTDFTLKISRVEAEDVGVYYCSQNTHVPPTFGQGTKVEIERTVAAPSVFIFPPSDEQLKSGTASVVCLLNNFYPREAKVQWKVDNALQSGNSQESVTEQDSKDSTYSLSSTLTLSKADYEKHKVYACEVTHQGLSSPVTKSFNRGEC
notes: also called Ho Ab P331_04F
For B14, the Ho/Con_2aR is 106 % (GpH7-B3/GpL16-k0 = 100).

B15: GpH7-B3 variant P271_10E/GpL16-k0 (antibody, human IgG1, kappa)
heavy: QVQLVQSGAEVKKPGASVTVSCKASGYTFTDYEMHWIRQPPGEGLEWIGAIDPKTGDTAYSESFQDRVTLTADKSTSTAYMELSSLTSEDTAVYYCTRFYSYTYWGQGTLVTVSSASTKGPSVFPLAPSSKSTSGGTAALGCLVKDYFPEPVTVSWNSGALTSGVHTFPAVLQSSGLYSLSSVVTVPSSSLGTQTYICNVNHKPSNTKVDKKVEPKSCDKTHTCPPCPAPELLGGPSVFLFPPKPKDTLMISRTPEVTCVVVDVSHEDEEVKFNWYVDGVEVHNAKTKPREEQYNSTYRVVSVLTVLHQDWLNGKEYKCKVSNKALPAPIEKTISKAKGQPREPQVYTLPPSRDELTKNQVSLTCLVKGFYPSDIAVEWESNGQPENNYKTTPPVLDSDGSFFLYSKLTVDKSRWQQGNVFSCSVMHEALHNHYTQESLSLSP
light: DIVMTQSPLSLPVTPGEPASISCQASESLVHSNRNTYLHWYLQKPGQSPQLLIYKVSNRFSGVPDRFSGSGSGTDFTLKISRVEAEDVGVYYCSQNTHVPPTFGQGTKVEIERTVAAPSVFIFPPSDEQLKSGTASVVCLLNNFYPREAKVQWKVDNALQSGNSQESVTEQDSKDSTYSLSSTLTLSKADYEKHKVYACEVTHQGLSSPVTKSFNRGEC
notes: also called Ho Ab P271_10E
Take B15: the Ho/Con_2aR was 88.8 % (GpH7-B3/GpL16-k0 = 100).

B16: GpH7-A5/GpH7-B3 variant A330_12R/GpL16-k0 (antibody, human IgG1, kappa)
heavy 1: not shown
heavy 2: not shown
light: DIVMTQSPLSLPVTPGEPASISCQASESLVHSNRNTYLHWYLQKPGQSPQLLIYKVSNRFSGVPDRFSGSGSGTDFTLKISRVEAEDVGVYYCSQNTHVPPTFGQGTKVEIERTVAAPSVFIFPPSDEQLKSGTASVVCLLNNFYPREAKVQWKVDNALQSGNSQESVTEQDSKDSTYSLSSTLTLSKADYEKHKVYACEVTHQGLSSPVTKSFNRGEC
notes: also called He Ab A330_12R
Turning to B16, the He/Con_2aR is 104 % (GpH7-A5/GpH7-B3/GpL16-k0 = 100).

Source of the values: patent US20150344570A1 (published 2015).
